From article doi:10.1101/2023.08.25.554718

Experiments:
Test in all cases: EMSA
Settings in all cases: EMSA: 20 mM HEPES pH 7.3, 150 mM NaCl, 0.5 mM TCEP, 30 min room temperature, 0.5 uM nucleosome or DNA, FRET: 20 mM HEPES pH 7.1, 100 mM NaCl
MBP-DBD C/EBPalpha = MBP-DBD C/EBPalpha (UniProt P53566)
[1] = biological target: PU.1 ETS (ETSPU.1) (mouse) (UniProt P17433)
[2] = biological target: PU.1 ETS Q218H Q218H (mouse) (UniProt P17433)

MBP-DBD C/EBPalpha, sequence (P53566 214-359): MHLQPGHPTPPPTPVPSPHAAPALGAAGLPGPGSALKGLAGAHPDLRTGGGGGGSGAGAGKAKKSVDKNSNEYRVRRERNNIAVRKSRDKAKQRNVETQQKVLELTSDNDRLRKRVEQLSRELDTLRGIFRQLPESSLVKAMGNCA

Sequence | Kd (MBP-DBD C/EBPalpha) [nM] | fold reduction in binding affinity (fold reduction in affinity vs WT H2A) [1] | binding signal (fold reduction in affinity vs WT) [2]
TAGGTGCAGGGCCTCTCGGCTGCTGATCTTCAGCAACTTGCTGAGAGTTGCAGCATTGCTGAGTCTTAGCAATGGATACTTCCCGATTCCCCTCACAAAAATAGGTCAGTCTGTCTGGCTAGTTCTGTACTTGCAGACACAGGGCATGTGGGGTTCCTATTT (double strand) [Cmut CX3CR1 nucleosome] | 2400 |  | 
TAGGTGCAGGGCCTCTCGGCTGCTGATCTTCAGCTGGTTGCTGAGAGTTGCAGCATTGCTGAGTCTTAGCAATGGATACTTCCCGATTCCCCTCACAAAAATAGGTCAGTCTGTCTGGCTAGTTCTGTACTTGCAGACACAGGGCATGTGGGGTTCCTATTT (double strand) [162 bp CX3CR1 nucleosome, 3A H2A (K75A;K76A;T77A)] |  | 3 | 
TAGGTGCAGGGCCTCTCGGCTGCTGATCTTCAGCTGGTTGCTGAGAGTTGCAGCATTGCTGAGTCTTAGCAATGGATACTTCCCGATTCCCCTCACAAAAATAGGTCAGTCTGTCTGGCTAGTTCTGTACTTGCAGACACAGGGCATGTGGGGTTCCTATTT (double strand) [162 bp CX3CR1 nucleosome] | 1700 |  | 2
